Assay [1] concerns the target human glucagon receptor encoded by plasmid pLJ6' (human). Nature of the assay: in situ 125I-glucagon binding with emulsion autoradiography on pLJ6'-transfected COS 7 cells.
The target of assay [2] is rat glucagon receptor encoded by plasmid pLJ4 (rat).
The target in assay [3] is glucagon receptors of rat liver membrane preparations (rat) (UniProt P30082). In words: Scatchard analysis of 125I-glucagon binding in competition with unlabeled glucagon, rat liver membranes.
Assay [4] has as its target rat glucagon receptor encoded by plasmid pLJ4 (rat). This is another data set of the same source.
Assay [5] shares this target. This is another data set of the same source.
The target is the same in assay [6]. In words: Scatchard analysis of 125I-glucagon binding in competition with unlabeled glucagon, membranes of pLJ4 BHK transfectants.
Assay [7] shares this target. The source holds these as a separate data set.
Assay [8] concerns the target T1, bovine parathyroid hormone (PTH) (Sigma) (bovine, UniProt P01268).
T1 sequence (peptide): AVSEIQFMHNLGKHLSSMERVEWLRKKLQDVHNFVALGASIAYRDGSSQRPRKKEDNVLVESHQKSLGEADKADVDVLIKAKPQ
In words: competition with 125I-glucagon, membranes of pLJ4 BHK transfectants. The procedure: The binding reaction was initiated by the addition of 20 µl of a membrane preparation to the reaction tubes. The reactions were incubated for 30 minutes at 30° C. The membranes were pelleted by centrifugation in a microfuge at high speed for 10 minutes at 4° C. The supernatants from each sample were aspirated, and the pellets were counted.

For “125I-glucagon (Amersham receptor grade) (ligand)”, the percent of transfected cells that bound glucagon in assay [1] is greater than 50%.
For the molecule glucagon (ligand), in assay [2], the ED50 of cAMP induction was 0.25 nM and the induction of cAMP levels (scintillation proximity radioimmunoassay) stood at 140 fold. The Kd in assay [3] was determined as 49 nM. In addition, in assay [4], the fold induction of luciferase (CRE-luciferase) fell in the range of 6 to 10 fold. Besides, in assay [5], the intracellular calcium concentration (fura-2 photoimaging) turned out to be 400 nM. In assay [6], this molecule came in with a Kd of 50 nM. Further, the cAMP levels (Amersham SPA kit) in assay [7] amounted to 5 fold.

B1: rat glucagon receptor encoded by plasmid pLJ4 (receptor)
chain: AQVMDFLFEKWKLYSDQCHHNLSLLPPPTELVCNRTFDKYSCWPDTPPNTTANISCPWYLPWYHKVQHRLVFKRCGPDGQWVRGPRGQSWRDASQCQMDDDEIEVQKGVAKMYSSYQVMYTVGYSLSLGALLLALVILLGLRKLHCTRNYIHGNLFASFVLKAGSVLVIDWLLKTRYSQKIGDDLSVSVWLSDGAVAGCRVATVIMQYGIIANYCWLLVEGVYLYSLLSITTFSEKSFFSLYLCIGWGSPLLFVIPWVVVKCLFENVQCWTSNDNMGFWWILRIPVLLAILINFFIFVRIIHLLVAKLRAHQMHYADYKFRLARSTLTLIPLLGVHEVVFAFVTDEHAQGTLRSTKLFFDLFFSSFQGLLVAVLYCFLNKEVQAELLRRWRRWQEGKALQEERMASSHGSHMAPAGTCHGDPCEKLQLMSAGSSSGTGCEPSAKTSLASSLPRLADSPT
With B1, the binding result in assay [8] was “no binding (tested: 1 µM)”.

A word on the Kd: it is a measure of binding affinity in units of concentration. Low values mean higher affinity, high ones lower affinity.

Values taken from patent US5776725, “Recombinant production of glucagon receptors” (ZymoGenetics, Inc., dated 1998).
